{"source": "the DeepSol protein solubility set"}
{"test": "soluble on expression in E. coli; label from the status in PepcDB or PDB records"}
{"sequence": "MGKNVVVLGTQWGDEGKGKVVDLLTERAKYVVRYQGGHNAGHTLVINGEKTVLHLIPSGILRENVISIIGNGVVLAPDALMKEMTELEARGVPVRERLLLSEACPLILPYHVALDNAREKARGAKAIGTTGRGIGPAYEDKVARRGLRVSDLFNKETFAIKLKEIVEYHNFQLVHYYKEAAVDYQKVLDDVLAIADILTAMVVDVSELLDNARKQGELIMFEGAQGTLLDIDHGTYPYVTSSNTTAGGVATGSGLGPRYVDYVLGIVKAYSTRVGAGPFPTELNDETGEFLRKQGNEYGATTGRSRRTGWLDIVAVRRAVQINSLSGFCMTKLDVLDGLKEVKLCVGYRMPDGREVDTTPLAAEGWEGIEPIYETMPGWSETTFGVKEHSKLPQAALNYIQRVEELTGVPIDIISTGPDRDETMILRDPFDA", "soluble on expression in E. coli": "soluble"}
{"sequence": "MSLAKYFDPHIHMVSRTTDDYQNMAAAGITGVIEPAFWQGQARTSVGSFIDYFDTLLGWERFRASMFGIHHFCTIGLNPKEANDLSVANEVLEILPRYLVKDGVVAVGEIGYDDITPEEDRFLAAQLELARQFNLPVLVHTPHRDKIGGTKRTLAVIREVGIAENLVIIDHLNELTLPLVLDSDCWRGHSIYPNTKMSEQRMVALLQEYGSEKMVVNSAADWGISDPLKVPKTGQAMLAAGFSEAQVEQVLFHNPVDFFAQSGQLDKQLVSTEGHHHHHH", "soluble on expression in E. coli": "not soluble"}
{"sequence": "MKIAIIGYSGSGKSTLANFLGQHYNCEVLHLDKIHFTSNWQERTVDEMTDDISTFMLQSDWIIEGNYSACLYEERMREADCIVYFNFNRVNCLYRAFRRYLTYRGKTRPSMAEG", "soluble on expression in E. coli": "not soluble"}
{"sequence": "LQTVCLKGTKHMKCFLAFTQTKTFHEASEDCISRGGTLSTPQTGSENDALYEYLRQSVGNEAEIWLGLNKRWSRYFWVDMTGTRIAYKNWEHSSDAQPDPSNWENCAVLSGAANGKWFGKRCRDQLPYICQFGI", "soluble on expression in E. coli": "soluble"}
{"sequence": "MNFPWRDGNRVELLINGEEYFPRLFQCIAEARREILLETFIIFEDEVGRQLQEALSAAAERGVEVQVTVDGYGTASLSPDYLARLTASGVRVHLFDPRPRLLGMRTNLFRRLHRKLVVIDRRQAFVGGINYGEDHLVRRGNMAKQDYAVRVEGPVVRDIRQACLALLEPDADYPPLRPSGAGQPARVRLVIRDNDQSSDDIEREYLQAIRQARRRLLIANAYFFPGYRLLRELRDAARRGVRVDLVLQGMPDMPLVRLCSRLLYDYLLREGVRIHEYCQRPLHGKVAVIDDDWSTIGSSNLDPLSLSLNLEANLVIRDVAFNGQLYQHLRELARRHCRRISRRHARRGYWWRAPLIFLGFHFSRHFPAIAGWVPAHLPRLKSLEPRPSRRWQERQGQRGNP", "soluble on expression in E. coli": "not soluble"}
{"sequence": "MASLPILTVLEQSQVSPPPDTLGDKSLQLTFFDFFWLRSPPINNLFFYELPITRSQFTETVVPNIKHSLSITLKHFYPFVGKLVVYPAPTKKPEICYVEGDSVAVTFAECNLDLNELTGNHPRNCDKFYDLVPILGESTRLSDCIKIPLFSVQVTLFPNQGIAIGITNHHCLGDASTRFCFLKAWTSIARSGNNDESFLANGTRPLYDRIIKYPMLDEAYLKRAKVESFNEDYVTQSLAGPSDKLRATFILTRAVINQLKDRVLAQLPTLEYVSSFTVACAYIWSCIAKSRNDKLQLFGFPIDRRARMKPPIPTAYFGNCVGGCAAIAKTNLLIGKEGFITAAKLIGENLHKTLTDYKDGVLKDDMESFNDLVSEGMPTTMTWVSGTPKLRFYDMDFGWGKPKKLETVSIDHNGAISINSCKESNEDLEIGVCISATQMEDFVHIFDDGLKAYL", "soluble on expression in E. coli": "soluble"}
{"sequence": "MEDLDFPICILKMNLQCCEDFPSRVKKLLRQVKGVYAITIDPVKGLILVCGTAEPSVLIKAVAKLGQSPQLYAYEKDPATAKTRFRTLLKRYATNKTQDKPSPPAPPVTATTPVETCPAGGETFRGFGYPGPTTMMQMPAFSLPPPRGLPGWLAPPTNPRLKYEEPKVTPRKPPAPYPFDYYENLGFPPSDSLFNYFSDDNPQPCSIM", "soluble on expression in E. coli": "soluble"}
{"sequence": "MTTETRSLYSQLPAIDRLLRDSSFLSLRDTYGHTRVVELLRQMLDEAREVIRGSQTLPAWCENWAQEVDARLTKEAQSALRPVINLTGTVLHTNLGRALQAEAAVEAVAQAMRSPVTLEYDLDDAGRGHRDRALAQLLCRITGAEDACIVNNNAAAVLLMLAATASGKEVVVSRGELVEIGGAFRIPDVMRQAGCTLHEVGTTNRTHANDYRQAVNENTALLMKVHTSNYSIQGFTKAIDEAELVALGKELDVPVVTDLGSGSLVDLSQYGLPKEPMPQELIAAGVSLVSFSGDKLLGGPQAGIIVGKKEMIARLQSHPLKRALRADKMTLAALEATLRLYLHPEALSEKLPTLRLLTRSAEVIQIQAQRLQAPLVAHYGAEFAVQVMPCLSQIGSGSLPVDRLPSAALTFTPHDGRGSHLESLAARWRELPVPVIGRIYDGRLWLDLRCLEDEQRFLEMLLK", "soluble on expression in E. coli": "not soluble"}
{"sequence": "AWVDQTPRSVTKETGESLTINCALKNAADDLERTDWYRTTLGSTNEQKISIGGRYVETVNKGSKSFSLRIRDLRVEDSGTYKCGAYFSDAMSNYSYPIPGEKGAGTVLTVKAA", "soluble on expression in E. coli": "soluble"}
{"sequence": "MAHHHHHHMSFKPKIIVCSSPAELSGVACKKIVDIIHASERTNWPLSIALSGGSTPKMLYSRLHEEHLHLLKEERALRFFFGDERLVPADAAESNYNMARQALLHDIPEDLVVPVDVGCVGEVSNVACNDAVKAADAYEKRIDLLLGTQKVEGMEAEIPVFDIVLLGLGSDGHTASIFHGSQAESEMHRAVSVGFPSPTMSPKVWRVTLTPITIIHARHVILLATGKEKKCVLNGIIADTPTEVPVSRFLRNCKGDVTFILDREIAENLTC", "soluble on expression in E. coli": "soluble"}
{"sequence": "MGSDKIHHHHHHMETDMPADMIQPLCEIDDLRIGFHGHDGALTEAVRGLSLTLHRGERLGIVGESGSGKSLTGRALLGLLPPAAQYRAKAMTFDGQDLLSMSARKRRQLCGQQMGMILQDPKYSLNPVMTVAQQMREVFDLHGPKLGRREMREQIIAALAAVHIRNPERVADAYPHELSGGMGQRVMIAMMVSSGPRLLVADEPTSALDVLVSMQVLGILDEMIEKHHTGLIFISHDLPLVMSFCDRVVVMFAGRVVETCAARDLVHARHPYTRGLLAASPPLIDPPDQLPVLKPDPAWLTQPAGASA", "soluble on expression in E. coli": "not soluble"}
{"sequence": "GMTTKDISRPVCILGLGLIGGSLLRDLHAANHSVFGYNRSRSGAKSAVDEGFDVSADLEATLQRAAAEDALIVLAVPMTAIDSLLDAVHTHAPNNGFTDVVSVKTAVYDAVKARNMQHRYVGSHPMAGTANSGWSASMDGLFKRAVWVVTFDQLFDGTDINSTWISIWKDVVQMALAVGAEVVPSRVGPHDAAAARVSHLTHILAETLAIVGDNGGALSLSLAAGSYRDSTRVAGTDPGLVRAMCESNAGPLVKALDEALAILHEAREGLTAEQPNIEQLADNGYRSRIRYEARSGQRRAKESVSPTITSSRPVLRLHPGTPNWEKQLIHAETLGARIEVF", "soluble on expression in E. coli": "soluble"}
{"sequence": "MAHHHHHHMAPPQTTLSLDANLRNTLRSLLIERLCSPTQPLPAKQLYDELTNRSRLVEEFHFSKTSRRITRQRLALQFLRRYNVLLHGLFFYSEGTRTWNTTTEFHRLAILGESVLLTEVRTRLLKLFPVMPYAAYVQSLPHMVGEEALAAAFDRYEMQNIVGAKPSNQRSGTPLTRMQKSHMLCAIVAEMYWFTARTKPTDLTHNNALFPPSDVLILHVLSTHLLENLPAELIYNVVEPIVADIKRVWVNEPMSLPSQLRLTPRTVGALSLNAVPVDLRYTAKEDAVMSLQKKHEEAHRRQHALTREPDHSCVKSFMRPSCNYRIFDGPRYQILSSDNRVAPLPLAQERSSLPASAVCTVVDDADSAARAMELAKMAEQW", "soluble on expression in E. coli": "not soluble"}
{"sequence": "MGSDKIHHHHHHMDVSIDSGKKKIIPFIQSGDYFFRRGVIAFRKNHLSRAVKLLERAVKLTEQEPVFHIQLAAVLSELGHYERSNDILESVVQNLDPGHSECHFFMANNYAYLGLFEKAEHCAIAYLSDQPDGEFAKDAHDLLDLLRFEKEEEGDEWENELTPTDQFLLEHEKACQLLEEGHLQEAIVLLEKLMDEEPSYWTAYNQYAQALFRLGNVEKAFEVCEHILEEDQGNLFALCNMALFYKKQGQQQQAESLIQALSAVHPMDRAHRFKVAQVLCAVGAYEQAYDRLKELEWTSISSDPEWHFCIGVAAYHLGQEEIALRYWKKAATLGVQQAADYYAMSIVDILQKEDVTYEGWHVKQKSRQNS", "soluble on expression in E. coli": "not soluble"}
{"sequence": "IIGGREVIPHSRPYMASLQRNGSHLCGGVLVHPKWVLTAAHCLAQRMAQLRLVLGLHTLDSPGLTFHIKAAIQHPRYKPVPALENDLALLQLDGKVKPSRTIRPLALPSKRQVVAAGTRCSMAGWGLTHQGGRLSRVLRELDLQVLDTRMCNNSRFWNGSLSPSMVCLAADSKDQAPCKGDSGGPLVCGKGRVLAGVLSFSSRVCTDIFKPPVATAVAPYVSWIRKVTGRSALEHHHHHH", "soluble on expression in E. coli": "soluble"}
{"sequence": "MSLATIYDVAKAAGVSPKTVSRVLNDDAPVNESTRQAVNEAIAALDYLPSQAARMMRSSRSRLIGLITGAISQEIGPAVQSGLPEMNIVQAIQREMSAQGKILMISDTGGRADAAPVLARTFAQHRVEGLIYVADHHREIEMDLTSGNCPVVLVNCYDAAATPCVLPDDEAGEAALVARLIEAGHRRIGFLPPDRTQPAARLRLDGYRTALAAAGLAYDPDLVAHVHDPDADRARALLTEALDALLSLDAPPSVICCTNDEMAMRLYGLLRSRGLRVPDDISVAGYDDHKTISEMLYPQLTTVVLPYSEMGRQAARLMLELIEGKPLASPGPTLVDGPVVWRSSVTEGHHHHHH", "soluble on expression in E. coli": "soluble"}
{"sequence": "MAGDPMSRPPVPPFTCKTAIEKVRLAEDGWNSRDAAKVALAYTVDTRWRNRVEFATNREEAQAFLTRKWNREHEYRLIKELWAFTGNRIAVRYAYEYRDDNGQWFRAYGNENWEFAEDGLMAHRHACINEMPIAESDRLYHWPLGRRPDDHPSLTDLGLLEHHHHHH", "soluble on expression in E. coli": "not soluble"}
{"sequence": "GMYANKVKKIAAVHDLSGMGRVSLTVVIPILSSMGFQVCPLPTAVLSNHTQYPGFSFLDLTDEMPKIIAEWKKLEVQFDAIYTGYLGSPRQIQIVSDFIKDFRQPDSLIVADPVLGDNGRLYTNFDMEMVKEMRHLITKADVITPNLTELFYLLDEPYKADSTDEELKEYLRLLSDKGPQVVIITSVPVHDEPHKTSVYAYNRQGNRYWKVTCPYLPAHYPGTGDTFTSVITGSLMQGDSLPMALDRATQFILQGIRATFGYEYDNREGILLEKVLHNLDMPIQMASYELI", "soluble on expression in E. coli": "soluble"}
{"sequence": "MQIPHGELRTLTYHSNALKSERQMYVWTPPGYSESSKPLPVLYFYHGFGDTGASAVVQGRIPQMMDNLLAEKKIEPMLVVIPDTETDVPGIIPEEYPPQERRKVFYPRNALAADRELIHDIIPAIGKRFNVRQDANGRALAGLSQGGYQALVSGMSHLDHFGWLATFSGVTTETVPNMAVAAQLERPEQINQQLKNLTVVIGETDNITGKDIAGLKTMLEQKNIRFDYTHYPNLGHEMDVWRPAYSEFVQKLFKLEHHHHHH", "soluble on expression in E. coli": "not soluble"}
{"sequence": "MSITAQLAALAGHGIELAKEIFAHGTSLKSKEDLAAVLGFDPTRVGRYQKTAKALFGPTDQPQLRAQAIAIAQKNNFSIDVLALINCKVGRLADAPLREEFRLELHRFAVDNSYTAIKQFANDQLEKRNGPNPARQHSLRYARFSHHPDANGMRYLITSLPDETMTAIEAKLVDKAKAHKSDTISM", "soluble on expression in E. coli": "not soluble"}
{"sequence": "MVKCMKPGKAVILLQGRYTGKKAVIVKSFDDGTVEKKYGHCLVAGLKKYPSKVIRKDSAKKTAKKSRVKCFFKVINYQHVMPTRYTLDLDLKNVVSADAISSKDKKVTALKEAKAKFEERFKTGKNRWFFTKLRF", "soluble on expression in E. coli": "not soluble"}
